Paper PMC3484714 (Journal of the American Chemical Society, 2012)
Read-outs that look alike come from different tables or passages of the source.

B1: corrinoid iron-sulfur protein (CFeSP) from Moorella thermoacetica, heterodimer of large and small subunit (complex)
chain 1: MPLTGLEIYKQLPKKNCGECGTPTCLAFAMNLASGKASLDSCPYVSDAAREALDAAAAPPIAKVVLGAGPTAVEMGDETELFRHDKRFYHETAIAIQVSDNLSSEELKAKVEAINGLNFDRVGQHYTIQAIAIRHDADDPAAFKAAVASVAAATQLNLVLMADDPDVLKEALAGVADRKPLLYAATGANYEAMTALAKENNCPLAVYGNGLEELAELVDKIVALGHKQLVLDPGARETSRAIADFTQIRRLAIKKRFRSFGYPIIALTTAANPLDEVLQAVNYVTKYASLVVLRTDAKEHLLPLLSWRQNLYTDPQVPIRVEEKLNEIGAVNENSPVYVTTNFSLTYYSVEGEIESTKIPSYLLSVDTDGLSVLTAYADGKFEAEKIAAVMKKVDLDNKVKRHRIIIPGAVAVLKGKLEDLTGWEVIVGPREASGIVAFARANLAS
chain 2: MAVQILRDRSRAAVQKVVLGATKDQGGTRSHTIVVGGDAALPFHHFEGEIVNRPVIGMEVQDIVPDWPDVLKDPFTDVINEPGRWAQKCVAEYGADLIYLKLDGADPEGANHSVDQCVATVKEVLQAVGVPLVVVGCGDVEKDHEVLEAVAEAAAGENLLLGNAEQENYKSLTAACMVHKHNIIARSPLDINICKQLNILINEMNLPLDHIVIDPSIGGLGYGIEYSFSIMERIRLGALQGDKMLSMPVICTVGYEAWRAKEASAPVSEYPGWGKETERGILWEAVTATALLQAGAHILLMRHPEAVARVKENIDQLMVSNAY
B2: methyltransferase (MeTr) from Moorella thermoacetica, homodimer (enzyme, UniProt Q46389 1-262, looked up)
chain: MLIIGERINGMFGDIKRAIQERDPAPVQEWARRQEEGGARALDLNVGPAVQDKVSAMEWLVEVTQEVSNLTLCLDSTNIKAIEAGLKKCKNRAMINSTNAEREKVEKLFPLAVEHGAALIGLTMNKTGIPKDSDTRLAFAMELVAAADEFGLPMEDLYIDPLILPANVAQDHAPEVLKTLQQIKMLADPAPKTVLGLSNVSQNCQNRPLINRTFLAMAMACGLDAAIADACDEALIETAATAEILLNQTVYCDSFVKMFKTR

How the values were obtained:
[1] = target: B2; test: ITC
[2] = target: B2; test: SAXS
[3] = target: B2; test: SAXS; remark: listed apart in the source
SAXS = target: the molecule itself; test: SAXS

KD of the first binding event [1] [µM]	KD of the second binding event [1] [µM]	dH (1:1 complex) [1] [kcal/mol]	stoichiometry N [2]	stoichiometry N [3]	Binder	stoichiometry N (SAXS)
7.7	111	4.9	1 CFeSP heterodimer per MeTr homodimer	2 CFeSP heterodimer per MeTr homodimer	B1	
					B2	2
